Values of other authors as cited in paper PMC5221605.

How the values were obtained:
[1] = target: Fibrinogen Aα-chain 561-575 (Homo sapiens) (UniProt P02671)
[2] = target: Fibrinogen (Homo sapiens) (UniProt P02671)
Fibrin (Homo sapiens) = Fibrin (Homo sapiens) (UniProt P02671)

UniProt P02671, sequence (P02671 36-866, chain 1 of 3): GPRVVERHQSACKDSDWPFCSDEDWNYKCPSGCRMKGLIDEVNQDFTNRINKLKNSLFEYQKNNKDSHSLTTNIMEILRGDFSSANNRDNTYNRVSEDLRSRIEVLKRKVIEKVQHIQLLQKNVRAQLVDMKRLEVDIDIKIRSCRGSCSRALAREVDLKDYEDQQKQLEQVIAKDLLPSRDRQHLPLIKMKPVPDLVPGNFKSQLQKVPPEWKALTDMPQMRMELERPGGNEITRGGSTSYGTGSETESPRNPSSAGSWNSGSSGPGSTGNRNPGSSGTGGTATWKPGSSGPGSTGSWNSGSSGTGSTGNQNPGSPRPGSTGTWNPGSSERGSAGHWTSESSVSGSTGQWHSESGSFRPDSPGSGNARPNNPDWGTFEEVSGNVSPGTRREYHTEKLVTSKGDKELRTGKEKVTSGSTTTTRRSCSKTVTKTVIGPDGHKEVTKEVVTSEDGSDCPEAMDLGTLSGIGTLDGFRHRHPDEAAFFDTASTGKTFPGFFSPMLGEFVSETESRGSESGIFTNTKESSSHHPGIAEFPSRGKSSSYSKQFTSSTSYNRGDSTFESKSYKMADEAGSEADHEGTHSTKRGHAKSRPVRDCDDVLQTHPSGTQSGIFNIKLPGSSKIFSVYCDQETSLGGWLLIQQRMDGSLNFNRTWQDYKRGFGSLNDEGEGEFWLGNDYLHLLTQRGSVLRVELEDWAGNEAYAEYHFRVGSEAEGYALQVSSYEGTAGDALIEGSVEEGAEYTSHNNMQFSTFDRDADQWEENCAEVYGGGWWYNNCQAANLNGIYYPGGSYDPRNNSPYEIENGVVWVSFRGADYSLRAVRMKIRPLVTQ
UniProt P02671, sequence (P02675 45-491, chain 2 of 3, further chain): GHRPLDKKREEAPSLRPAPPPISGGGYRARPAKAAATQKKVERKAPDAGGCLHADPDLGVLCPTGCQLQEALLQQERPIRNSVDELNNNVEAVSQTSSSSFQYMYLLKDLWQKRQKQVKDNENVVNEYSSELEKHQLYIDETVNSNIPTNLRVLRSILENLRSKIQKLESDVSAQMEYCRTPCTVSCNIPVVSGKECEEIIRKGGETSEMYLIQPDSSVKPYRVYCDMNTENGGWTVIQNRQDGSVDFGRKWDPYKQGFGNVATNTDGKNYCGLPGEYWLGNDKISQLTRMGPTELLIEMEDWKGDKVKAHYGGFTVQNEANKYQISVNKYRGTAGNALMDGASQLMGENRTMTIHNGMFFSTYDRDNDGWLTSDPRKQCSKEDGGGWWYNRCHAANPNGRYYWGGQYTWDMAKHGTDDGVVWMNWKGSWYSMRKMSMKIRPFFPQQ
UniProt P02671, sequence (P02679 27-453, chain 3 of 3, further chain): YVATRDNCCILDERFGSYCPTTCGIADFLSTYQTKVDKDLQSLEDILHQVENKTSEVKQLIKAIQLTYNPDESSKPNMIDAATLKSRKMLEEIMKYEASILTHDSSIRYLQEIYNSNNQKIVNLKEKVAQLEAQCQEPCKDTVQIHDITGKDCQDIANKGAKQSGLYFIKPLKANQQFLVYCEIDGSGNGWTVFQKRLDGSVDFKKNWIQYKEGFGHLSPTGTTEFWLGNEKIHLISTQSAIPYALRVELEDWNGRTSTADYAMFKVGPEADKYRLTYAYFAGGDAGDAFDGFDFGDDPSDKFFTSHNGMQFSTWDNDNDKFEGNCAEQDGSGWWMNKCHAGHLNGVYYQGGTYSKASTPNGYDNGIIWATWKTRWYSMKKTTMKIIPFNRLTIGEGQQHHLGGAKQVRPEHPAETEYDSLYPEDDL

| Substance | Kd [1] [nM] | Kd [2] [nM] | Kd (Fibrin (Homo sapiens)) [nM] |
| --- | --- | --- | --- |
| Bbp N2-N3 (from UniProt Q6GJA6) | 500 |  |  |
| ClfA (from UniProt Q2G015) |  | 500 | 500 |
